# Laboratory results taken from US20160138036A1 (SNU R AND DB FOUNDATION, published 2016).
# B1: S-K truncated SOC1 form (peptide)
# chain: VSEENMQHLKYEAANMMKKIEQLEASKRKLLGEGIGTCSIEELQQIEQQLEKSVKCIRARKTQVFKEQIEQLKQKEKALAAENEKLSEK
# modifications: 35S-Met label in the pull-down assay (in vitro translated)
# notes: It was fused to GAL4 domain or EYFP half in yeast and BiFC assays; also called S-K form; SOC1 a-siPEP
# B2: S-IK truncated SOC1 form (peptide)
# chain: KKAFELSVLCDAEVSLIIFSPKGKLYEFASSNMQDTIDRYLRHTKDRVSTKPVSEENMQHLKYEAANMMKKIEQLEASKRKLLGEGIGTCSIEELQQIEQQLEKSVKCIRARKTQVFKEQIEQLKQKEKALAAENEKLSEK
# modifications: 35S-Met label in the pull-down assay (in vitro translated)
# notes: It was fused to GAL4 domain or EYFP half in yeast and BiFC assays; also called SOC1 a-siPEP
# B3: BdS-IK truncated BdSOC1 form (peptide)
# chain: KAHELSVLCDVEVALIVFSPSGRLYEFASASMQKTLERYKASTKDKTSSPTAQQDIEKIKADAEGLSQKLEALEAYRRKFLGEKLEDDCSFEELNSLEVKMEKSLRSIRRMKTQVFEDQLAKLRQKEMTLRKENEDLRGK
# modifications: 35S-Met label in the pull-down assay (in vitro translated)
# notes: An artificial start codon was added; also called BdS-MK2 (primer name)
# B4: BdS-K truncated BdSOC1 form (peptide)
# chain: TAQQDIEKIKADAEGLSQKLEALEAYRRKFLGEKLEDDCSFEELNSLEVKMEKSLRSIRRMKTQVFEDQLAKLRQKEMTLRKENEDLRGK
# modifications: 35S-Met label in the pull-down assay (in vitro translated)
# notes: An artificial start codon was added
# How the values were obtained:
# [1] = target: T1, SOC1 (SUPPRESSOR OF OVEREXPRESSOR OF CONSTANS 1) transcription factor (Arabidopsis thaliana, UniProt O64645 1-214, 35S-Met label in the pull-down assay (in vitro translated)); assay: BiFC (split EYFP fusions) in Arabidopsis protoplasts
# T1 construct: Full-size MADS box transcription factor; In yeast two-hybrid it was fused to GAL4 AD or BD (pGADT7/pGBKT7); In BiFC it was fused to a half of EYFP; In the pull-down it was in vitro translated from pGADT7 and 35S-labeled; also called Arabidopsis SOC1; At2g45660
# T1 sequence (O64645 whole entry, the tested form may be a part): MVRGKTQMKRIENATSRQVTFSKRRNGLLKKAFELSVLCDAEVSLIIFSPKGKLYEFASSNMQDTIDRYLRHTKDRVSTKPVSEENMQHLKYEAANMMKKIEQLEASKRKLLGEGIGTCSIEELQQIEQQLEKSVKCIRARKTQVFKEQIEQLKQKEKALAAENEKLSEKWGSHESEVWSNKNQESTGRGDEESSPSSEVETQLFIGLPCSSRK
# Description: (§1) BiFC assays were carried out as described previously (Hong et al., J. Biol. Chem. 286, 1659-1668, 2011). A full-size SOC1 gene was fused in-frame to the 5′ end of a gene sequence encoding the C-terminal half of EYFP in the pSATN-cEYFP-C1 vector (E3082). Truncated SOC1 gene sequences were fused in-frame to the 5′ end of a gene sequence encoding the N-terminal half of EYFP in the pSATN-nEYFP-C1 vector (E3081). The expression constructs were cotransformed into Arabidopsis protoplasts. Expression of the fusion constructs was monitored by fluorescence microscopy using a Zeiss LSM510 confocal microscope (Carl Zeiss MicroImaging GmbH, Jena, Germany). The BdSOC1 gene constructs were prepared similar to the Arabidopsis SOC1 gene constructs and transiently expressed in Brachypodium protoplasts.
# [2] = target: T2, BdSOC1 (Brachypodium distachyon SUPPRESSOR OF OVEREXPRESSOR OF CONSTANS 1) transcription factor (Brachypodium distachyon, 35S-Met label in the pull-down assay (in vitro translated)); assay: BiFC (split YFP fusions) in Brachypodium protoplasts
# T2 construct: Fused to an EYFP half in BiFC; In vitro translated and 35S-labeled in the pull-down; also called Bradi1g77020; Brachypodium SOC1
# T2 sequence (chain, as listed by the source limits assumed): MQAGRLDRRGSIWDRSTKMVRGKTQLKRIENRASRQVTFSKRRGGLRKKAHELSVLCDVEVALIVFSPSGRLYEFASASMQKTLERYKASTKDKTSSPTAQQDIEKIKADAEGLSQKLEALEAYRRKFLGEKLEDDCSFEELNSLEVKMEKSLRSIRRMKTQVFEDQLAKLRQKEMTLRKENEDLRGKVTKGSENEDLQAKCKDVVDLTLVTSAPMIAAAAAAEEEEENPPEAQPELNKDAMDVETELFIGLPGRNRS
# Description: (a) in vitro pull-down assays. The BdSOC1 protein was prepared as recombinant BdSOC1-MBP fusion in E. coli cells. The ³⁵S-labeled BdSOC1 polypeptides were prepared by in vitro translation. Part of Coomassie-stained gel is shown (bottom panel). (b) BiFC assays. Partial YFP fusion constructs were transiently expressed in Brachypodium protoplasts. Scale bars=10 μm.
# as §1
Binder,binding result [1],binding result [2]
B1,binds,–
B2,binds,–
B3,–,binds
B4,–,binds
